Laboratory results: the nanobody polyreactivity screen of Harvey et al. (2022)

Assay: yeast display, Sf9 membrane polyspecificity reagent, FACS + sequencing; frameworks hold sequencing errors
How it was run: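 Galactose-induced (36–48 hours) yeast carrying a synthetic nanobody display library were exposed to 10% biotinylated, detergent-solubilized Sf9 membrane reagent at 4 °C for 1 hour. FACS followed streptavidin microbead enrichment, using low and high (top ~1%) gates for expression (anti-HA) and reagent binding (streptavidin). Colony PCR, MiSeq 2 × 250 sequencing and CDR-length filtering followed. Labels for polyreactivity reflect the gate of origin.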

Sequence | polyreactivity (PSR sort gate)
QVQLVESGGGLVQAGGSLRLSCAASGGIFIGYAMGWYRQAPGKERELVAAISYSGGSTYYADSVKGRFTISRDNAKNTVYLQMNSLKPEDTAVYYCAAQVDRKYRWFNSWGQGTQVTVSS | high polyreactivity
QVQLVESGGGLVQAGGSLRLSCAASGGIFIRYAMGWYRQAPGKEREFVAAIRWRGTNTYYADSVKGRFTISRDNAKNTVYLQMNSLKPEDTAVYYCAARPYYITRYKGMDYWGQGTQVTVSS | high polyreactivity
QVQLVESGGGLVQAGGSLRLSCAASGGIFKAYAMGWYRQAPGKEREFFAAITSSGGRTSYADSVKGRFTISRDNAKNNVYLQKNSLKQEDTAVYYCAAYGDGIVNSWDSYSEMDYWGQGTQVTVSS | low polyreactivity
QVQLVESGGGLVQAGGSLRLSCAASGGIFKRNTMGWYRLAPGKERELVAAISRSGGSTYYADSVKGRFTISRDNAKNTVYLQMNSLKPEDTAVYYCARRFPYNYYVYGEDYWGQGTQVTVSS | high polyreactivity
QVQLVESGGGLVQAGGSLRLSCAASGGIFKRNTMGWYRQAPGKERELVAGISWTGGRTYYADSVKGRFTISRDNAKNTVYLHMNSLKPEDTAVYYCAAKPLQGVRRVEYWGQGTQVTVSS | high polyreactivity
QVQLVESGGGLVQAGGSLRLSCAASGGIFKVYGMRWYRQAPGKERELVAAISWTTGGTYYADSVKGRFTISRDNAKITVYLQMNSLKQEDTAVYYCAAEYADSWSAFDWNYYYWGQGTQVTVSS | high polyreactivity
QVQLVESGGGLVQAGGSLRLSCAASGGIFLVNDMGWYRPAPGKEWELVAAITSGGGTYYADSVKGRFTISRDNAKNTVYLQMNSLKPEDTAVYYCARDTYRQIVSNESYGYWGQGTQVTVSS | low polyreactivity
QVQLVESGGGLVQAGGSLRLSCAASGGIFNINAMGWYRQAPGKERELVASIRGSGGRTYYADSVKGRFTISRDNAKNTVYLQMNSLKPEDTAVYYCNAESYSTWSFGHRYEYDYWGQGTQVTVSS | low polyreactivity
QVQLVESGGGLVQAGGSLRLSCAASGGIFNRNAMGWYRQAPGKERELVAAISSGGGSTYYADSVKGRFTISRDNAKNTVYLQMNSLKPEDTAVYYCARDSYHLYIQPFGYWGQGTQVTVSS | low polyreactivity
QVQLVESGGGLVQAGGSLRLSCAASGGIFPAYAMGWYRQAPGKERELVASISSSGGSTYYADSVKGRFTISRDNAKNTVYLQMNSLKPEDTAVYYCNVAQYLRARRPVDYWGQGTQVTVSS | high polyreactivity
QVQLVESGGGLVQAGGSLRLSCAASGGIFPGNAMGWYRPAPGKERELVATISYSGGSTYYADSVKGRFTISRDNAKNTVYLQMNSLKPEDTAVYYCAARGYKPTRSRRTEYGYWGQGTQVTVSS | high polyreactivity
QVQLVESGGGLVQAGGSLRLSCAASGGIFPLNAMGWYRQAPGKERELVAAISRRGGSTYYADSVKGRFTISRDNAKNTVYLQMNSLKPEDTAVYYCAAVTVRKFYKGINYWYEYWGQGTQVTVSS | high polyreactivity
QVQLVESGGGLVQAGGSLRLSCAASGGIFPYYAMGWYRQAPGKERELVAGISQNDGRTYYADSVKGRFTISRDNAKNTVYLQMNSLKPEDTAVYYCATDYWYPRYGYWGQGTQVTVSS | low polyreactivity
QVQLVESGGGLVQAGGSLRLSCAASGGIFRGYAMGWYRQAPGKERELVAAITKRGGRTYYADSVKGRFTISRDNAKNTVYLQMNSLNPEDTAVFYCAADYYAAYHLPDLDYDYWGQGTQVTVSS | high polyreactivity
QVQLVESGGGLVQAGGSLRLSCAASGGIFRGYVMGWYRQAPGKERELVAAISYSGGNTYYADSVKGRFTISRDNAKNTVYLQMNSLKPEDTAVYYCDTVRSDFHSDDYWGQGTQVTVSS | low polyreactivity
QVQLVESGGGLVQAGGSLRLSCAASGGIFRLYGMGWYRQAPGKERELVAAIRQSGGRTYYADSVKGRFTISRDNAKNTDYLQMNSLKPEDTAVYYCAADLLYRSSGTVRSDYSRYDYWGQGTQVTVSS | low polyreactivity

Sequence | polyreactivity (PSR sort gate)
QVQLVESGGGLVQAGGSLRLSCAASGGIFRLYGMGWYRQAPGKERELVAAIRQSGGRTYYADSVKGRFTISRDNAKNTVYLQMNSLKPEDTAVYYCAADLLYRSSGTVRSDYSRYDYWGQGTQVTVSS | low polyreactivity
QVQLVESGGGLVQAGGSLRLSCAASGGIFRNYAMGWYRQAPGKERELVARISSAGSTNYADSVKGRFTISRDNAKNTVYLQMNSLKPEDTAVYSCAAYPYVGYVSFSAYDYWGQGTQVTVSS | low polyreactivity
QVQLVESGGGLVQAGGSLRLSCAASGGIFRSYTMGWYRQAPGKERELVAAISRSGGRTYYADSVKGRFTISRDNAKNTVYLQMNSLKPEDTAVYYCAAYVRSATLRVNYGYWGQGTQVTVSS | high polyreactivity
QVQLVESGGGLVQAGGSLRLSCAASGGIFRWYTMGWYRPAPGKERELVAAITGSGGRTFYADSVKGRFTISRDNAKNTVYLQMNSLKPEDTAVYYCAKPQAQVGGYWGYDYWGQGTQVTVSS | high polyreactivity
QVQLVESGGGLVQAGGSLRLSCAASGGIFRYYAMGWYRQAPGKERELVAAISKRGGSTYYADSVKGRFTISRDNAKNTVYLQMNSLKPEDTAVYYCAAEGYYGSSYGYWGQGTQVTVSS | high polyreactivity
QVQLVESGGGLVQAGGSLRLSCAASGGIFRYYAMGWYRQAPGKERELVAAISKSGGRTYYADSVKGRFTISRDNAKNTVYLQMNSLKPEDTAVYYCAADLYPFSRNTRYQFLYNYWGQGTQVTVSS | low polyreactivity
QVQLVESGGGLVQAGGSLRLSCAASGGIFRYYAMGWYRQAPGKERELVAAISSGGRTYYADSVKGRFTISRDNAKNTVYLQMNSLKPEDTAVYYCNADRYWGYDYWGQGTQVTVSS | high polyreactivity
QVQLVESGGGLVQAGGSLRLSCAASGGIFSAYAMGWSRQAPGKERELVAVINGSGSNTYYADSVKGRFTISRDNAKNTVYLQMNSLKPEDTAVYYCAARVYVSRSKRLNYWGQGTQVTVSS | high polyreactivity
QVQLVESGGGLVQAGGSLRLSCAASGGIFSAYVMGWSRQAPGKERELVAAITRRGGSTYYADSVKGRFTISRDNAKNTVYLQMNSLKPEDTAVYYCAALLRGQDRTMDYWGQGTQVTVSS | high polyreactivity
QVQLVESGGGLVQAGGSLRLSCAASGGIFSRYAMGWYRQAPGKEREFVAAISFSGASTYYADSVKGRFTISRDNAKNTVYLQMNSLKPEDTAVYYCAAYWDAEGRRYTRLDYWGQGTQVTVSS | low polyreactivity
QVQLVESGGGLVQAGGSLRLSCAASGGIFSSYAMGWYRPAPGKERELVAAIDSDGTTYYADSVKGRFTISRDNAKNTVYLQMNSLKPEDTAVYYCATGYPVRYRGYLNWSYYAYDYWGQGTQVTVSS | low polyreactivity
QVQLVESGGGLVQAGGSLRLSCAASGGIFSYNVMGWYRQAPGKERELVAAITRGGSTYYADSVKGRFTISRDNAKNTVYLQMNSLKPEDTAVYYCAAVRNYLWTGYDYWGQGTQVTVSS | high polyreactivity
QVQLVESGGGLVQAGGSLRLSCAASGGIFSYYAMGWYRQAPGKERELVAAITGSGATTYYADSVKGRFTISRDNAKNTVYLQMNSLKPEDTAVYYCAADYWTAFYTLDSWGQGTQVTVSS | low polyreactivity
QVQLVESGGGLVQAGGSLRLSCAASGGIFSYYVMGWYRQAPGKEREFVASITQRGRTYYADSVKGRFTISRDNAKNTVYLQINSLKPEDTAVYYCAAGIYAFRRHREEYDYWGQGTQVTVSS | high polyreactivity
QVQLVESGGGLVQAGGSLRLSCAASGGIFTSNAMGWYRQAPGKERELVAAITKNGGRTYYADSVKGRFTISRDNAKNTVYLQMNSLKPEDTAVYYCNAAVTFRCYDYWGQGTQVTVSS | high polyreactivity
